Laboratory results: patent publication US8999342B2, “Anti-fibroblast activation protein antibodies and methods and uses thereof” (Ludwig Institute for Cancer Research, Ltd., priority 2009, dated 2015)
Entries after “also recorded” stand apart in the source; their conditions may differ.

What was measured:
[1] = biological target: T1, FAP (Homo sapiens, UniProt Q12884); details: cited from earlier work
T1 sequence (Q12884 1-760): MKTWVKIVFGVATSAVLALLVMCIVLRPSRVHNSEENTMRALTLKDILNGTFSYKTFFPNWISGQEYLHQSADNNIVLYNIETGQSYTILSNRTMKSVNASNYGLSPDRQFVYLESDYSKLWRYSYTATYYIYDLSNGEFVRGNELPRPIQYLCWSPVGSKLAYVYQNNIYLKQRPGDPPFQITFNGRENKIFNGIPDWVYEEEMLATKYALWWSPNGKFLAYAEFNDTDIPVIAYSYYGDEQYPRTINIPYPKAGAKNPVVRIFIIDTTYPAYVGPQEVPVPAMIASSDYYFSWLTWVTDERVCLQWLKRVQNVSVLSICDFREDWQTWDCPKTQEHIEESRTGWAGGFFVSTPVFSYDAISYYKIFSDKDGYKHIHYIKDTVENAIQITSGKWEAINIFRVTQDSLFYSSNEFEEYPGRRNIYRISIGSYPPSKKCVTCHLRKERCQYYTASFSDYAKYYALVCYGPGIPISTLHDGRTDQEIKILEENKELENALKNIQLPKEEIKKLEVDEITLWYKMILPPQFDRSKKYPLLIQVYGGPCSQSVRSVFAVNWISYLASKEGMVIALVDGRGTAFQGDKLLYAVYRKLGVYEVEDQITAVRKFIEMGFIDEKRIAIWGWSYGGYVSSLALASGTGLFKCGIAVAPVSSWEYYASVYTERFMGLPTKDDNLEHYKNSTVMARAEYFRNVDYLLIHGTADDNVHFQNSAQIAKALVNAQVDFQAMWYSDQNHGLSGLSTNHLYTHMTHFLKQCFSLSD

[2] = biological target: T2, dipeptidylpeptidase activity of FAP (Homo sapiens, UniProt Q12884); assay: Fluorogenic dipeptidyl peptidase activity assay (Ala-Pro-AFC); type: biochemical; details: 30 μg/ml IgGs added to extracts of human AF; Ala-Pro-AFC substrate
T2 construct: native FAP expressed on human AF; endogenous in cells
T2 sequence (Q12884 1-760): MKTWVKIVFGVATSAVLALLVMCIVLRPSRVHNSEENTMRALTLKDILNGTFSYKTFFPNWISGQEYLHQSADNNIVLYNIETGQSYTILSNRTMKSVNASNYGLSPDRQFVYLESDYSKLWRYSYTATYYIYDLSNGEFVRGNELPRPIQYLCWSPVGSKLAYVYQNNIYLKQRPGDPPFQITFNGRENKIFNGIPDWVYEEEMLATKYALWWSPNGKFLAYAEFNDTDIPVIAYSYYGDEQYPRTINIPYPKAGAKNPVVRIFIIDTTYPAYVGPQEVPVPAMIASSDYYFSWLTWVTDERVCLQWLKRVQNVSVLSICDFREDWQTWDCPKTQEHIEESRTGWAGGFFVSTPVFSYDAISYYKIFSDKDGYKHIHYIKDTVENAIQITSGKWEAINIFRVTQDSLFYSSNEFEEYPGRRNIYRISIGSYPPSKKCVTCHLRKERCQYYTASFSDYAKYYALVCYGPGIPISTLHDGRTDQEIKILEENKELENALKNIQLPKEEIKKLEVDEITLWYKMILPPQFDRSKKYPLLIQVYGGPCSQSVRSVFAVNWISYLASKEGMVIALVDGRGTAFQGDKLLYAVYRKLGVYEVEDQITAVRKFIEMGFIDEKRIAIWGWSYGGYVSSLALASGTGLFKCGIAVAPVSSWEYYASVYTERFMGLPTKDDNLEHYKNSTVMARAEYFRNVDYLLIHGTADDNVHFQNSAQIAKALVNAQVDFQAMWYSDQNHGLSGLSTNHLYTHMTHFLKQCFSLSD
Experimental: Fluorogenic Dipeptidyl Peptidase Activity Assay.
The diluted extracts were incubated with 0.5 mM Ala-Pro-AFC in 96-well plates at 37° C. and release of free AFC was monitored over time on a fluorescence reader (Victor Wallac, Perkin Elmer), using a 395 nm excitation/530 nm emission filter set. Dipeptidyl peptidase activity was determined from the slope of the fluorescence readings, after subtraction of background activity from a FAP negative sample.

[3] = test system: mock-transfected Hek293 cells; assay: Detection of apoptotic cells by Annexin V staining, mock-transfected cells; type: cell-based
Experimental: Detection of Apoptotic Cells by Annexin V Staining.
FAP- and mock-transfected Hek293 cells were incubated in DMEM supplemented with 10% FBS in the presence of indicated amount of antibodies at RT. Control samples were either incubated in the absence of antibodies or at 4° C. in the presence of antibodies. After 60 min, cells were washed and stained with Propidium Iodide (Sigma) and Annexin V (Roche) following the manufacturer's instructions and the percentage of apoptosis was determined using flow cytometry.

[4] = biological target: T1, FAP; assay: Antibody mediated down-regulation of FAP expression; type: cell-based; set-up: expressed in transfected cells; host or cells: HT1080 (FAP-transfected); details: FAP-transfected tumor cell lines (HT1080FAP), over night incubation, F19 staining
Experimental: For detection of loss of FAP expression, sub-confluent HT1080FAP cultures were trypsinized, washed with PBS and resuspended in RPMI, 10% FBS at 5×10^5 cells and 0.5 ml per well seeded in 12 well cell culture plates and the indicated concentration of ESCHIgG was added. After over night incubation, cells were trypsinized washed and stained with 10 ug/ml F19 followed by FITC-conjugated polyclonal goat anti-mouse. Fluorescence intensity of the cells was analyzed by flow cytometry. % FAP expression was calculated (100/(signal 0 ug/ml ESC11IgG−background signal))*(signal with ESC11IgG−backgroundsignal). One representative of three independent experiments is shown.

[5] = test system: FAP-expressing cells; assay: Attachment assay to ECM proteins; type: cell-based; details: antibodies 10 ug/ml, 30 min preincubation
Experimental: Ninety-six-well microtiter plates (MAXISORP®, Nunc) were coated with indicated proteins at a concentration of 50 ug/ml and incubated over night at 4° C. Plates were washed three times with PBS and then blocked with 1% BSA for 60 min at 37° C. Cells were preincubated for 30 min with indicated antibodies at a final concentration of 10 ug/ml and then added to the coated plates. After 60 min, plates were washed with PBS to remove non adherent cells. Attached cells were stained using cristal violet and lysed by addition of Isopropanol with 0.4M HCl at a final volume of 75 ul/well. OD560 was measured on a ELISA reader.

[6] = biological target: T3, CD26 (Homo sapiens, UniProt P27487); assay: Binding specificity by ELISA on cell lysates, CD26; details: HEK293 huCD26+ lysates
T3 construct: expressed in transfected cells; host or cells: HEK293 c-18 (ATCC CRL-10852), pEAK 8 vector; cell lysate coated on the plate
T3 sequence (P27487 whole entry): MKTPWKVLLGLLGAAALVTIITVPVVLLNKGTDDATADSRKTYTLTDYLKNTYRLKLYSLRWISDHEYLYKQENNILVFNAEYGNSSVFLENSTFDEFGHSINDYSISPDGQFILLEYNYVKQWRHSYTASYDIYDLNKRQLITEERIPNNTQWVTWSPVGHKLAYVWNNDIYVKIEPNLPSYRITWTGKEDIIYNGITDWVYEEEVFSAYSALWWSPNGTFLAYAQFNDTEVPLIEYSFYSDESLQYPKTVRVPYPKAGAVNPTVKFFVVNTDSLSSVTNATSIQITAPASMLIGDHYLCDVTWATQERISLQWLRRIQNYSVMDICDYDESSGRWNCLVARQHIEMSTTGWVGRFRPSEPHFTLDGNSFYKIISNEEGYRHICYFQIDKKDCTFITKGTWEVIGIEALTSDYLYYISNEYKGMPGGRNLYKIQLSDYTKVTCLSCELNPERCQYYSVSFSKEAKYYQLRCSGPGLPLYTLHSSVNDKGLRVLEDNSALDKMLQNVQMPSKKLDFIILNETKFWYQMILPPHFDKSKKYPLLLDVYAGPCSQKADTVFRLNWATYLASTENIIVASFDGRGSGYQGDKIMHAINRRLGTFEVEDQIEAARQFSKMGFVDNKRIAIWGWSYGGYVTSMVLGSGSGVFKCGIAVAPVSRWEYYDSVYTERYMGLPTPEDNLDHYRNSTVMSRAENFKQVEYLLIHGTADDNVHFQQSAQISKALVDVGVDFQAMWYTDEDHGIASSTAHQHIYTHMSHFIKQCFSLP
Experimental: FIG. 3: Specificity of Fabs ESC11 and ESC14. A. ELISA of Fabs (100 nM) binding to cell-lysate-coated plates. HT1080 FAP^+ (black bars), HT1080 (white bars), HEK293 huCD26^+ (striped bars), HEK293 muFAP^+ (grey bars), HEK293 mock transfected line (hatched bars). B. FACS analysis of Fab ESC11 (black line), ESC14 (grey line), and a non-binding control Fab (filled) on HT1080 FAP^+ cells (left) and 293 muFAP^+ cells (right)
Screening of Supernatants by ELISA and Flow Cytometry.
Supernatants of the output libraries after each selection round, and supernatants of individual bacterial clones after rounds three, four, and five were screened for FAP-binding phage by ELISA. Ninety-six-well microtiter plates (MAXISORP® Nunc) were coated with cell extracts cell extracts from HEK293 huFAP, HEK293 huCD26, HEK293 muFAP, or mock-transfected HEK293, blocked with 5% milk powder in PBS, incubated with phage-containing supernatants for 1 hr at room temperature and developed using an anti-M13-HRP conjugated antibody. […] Bound Fab antibody was detected with anti-myc tag antibody 9E10, followed by an anti-mouse immunoglobulin-PE conjugate. For competition assays, Fab antibodies were detected using biotinylated anti-myc tag 9E10, followed by strep-PE.

[7] = test system: HEK293 cells stably transfected with mouse FAP; assay: Detection of apoptotic cells by Annexin V staining, FAP-transfected cells; type: cell-based
[8] = test system: HT1080FAP cells; assay: Internalization of FAP-antibody complexes by fluorescence microscopy; type: cell-based; details: DyLight 488 labelled antibody, 37° C., two hours, acidic wash
Experimental: HT1080FAP cells were incubated with fluorescence labelled anti-FAP antibody Esc11 DYLIGHT® […] (flurorochrome conjugated antibody, ThermoScientific). […] When cells were warmed up to 37° C., rapid internalisation of FAP-Esc11 complexes could be detected with cytoplasmatic spots and vesicular accummulation (FIG. 11B).
Methods: HT1080FAP were grown on fibronectin coated glas slides over night. The cells were then treated with DYLIGHT® (Thermo Scientific) labeled ESC11IgG at either 4° C. or 37° C. for indicated time points. The cover slides were then mounted with flouromount for fluorescence microscopy. ESC11 DYLIGHT® 488 was detected at extention wavelaength of 488 nm and an emission of 518 nm. The results are depicted in FIG. 11.

[9] = biological target: T1, FAP; assay: Competition assay on HT1080hFAP cells by flow cytometry; type: binding; set-up: expressed in transfected cells; host or cells: HT1080 (FAP-transfected); details: IgG at 5 ug/ml before ESC11/ESC14 Fab fragments; HT1080FAP cells, 4° C.
Experimental: For measuring the competitive binding of ESC11 and ESC14, Fab fragments were titered on HT1080hFAP cells and binding was determined by flow cytometry. The concentration resulting in 90% of the maximal binding was used for the competition assay. HT1080FAP were incubated with the indicated antibodies at 5 ug/ml for 20 min at 4° C., then the ESC11-/ESC14 Fab fragments or PBS added at the pre-determined concentrations and incubated for 20 min at 4° C. Cells were washed once with PBS at 4° C. and fixed with 2% PFA on ice. Bound Fab fragment was detected by the myc-tag with biotinylated anti-myc and PE conjugated streptavidin. Cells were then analyzed by flow cytometry as described.

For Sibrotuzumab: humanized version of F19, the Safety and tolerability ([1]; patients, phase I and phase II trials) is given as “safe and well tolerated”, the “Accumulation at the tumor area” value ([1]; trace-labelling with ^131I, imaging analysis) is given as “specific accumulation” and the “Anti-tumor or therapeutic activity” value ([1]; unconjugated antibody, patients) is given as “no anti-tumor or any therapeutic activity”.

B1: ESC14: anti-FAP antibody clone ESC14, format (Fab or IgG) given by the context of the place (antibody, V domains shown)
VH: EVQLVQSGAEVKKPGASVKVSCKASGYTFTSYGISWVRQAPGQGLEWMGWISAYNGNTNYAQKLQGRVTMTTDTSTSTAYMELRSLRSDDTAVYYCARDWSRSGYYLPDYWGQGTLVTVSS
VL: DVVMTQSPLSLPVTLGQPASISCRSSQSLLHSNGYNYLDWYLQRPGQSPHLLIFLGSNRASGVPDRFSGSGSGTDFTLKISRVEAEDVGIYYCMQALQTPPTFGQGTKVEIK
With B1 the “Effect on DPP (protease) activity of FAP” value [2] was “no direct influence”, the “Induction of apoptosis in mock-transfected cells” value [3] was “not altered at all” and the “Down-regulation of FAP expression” value [4] was “rapid FAP down-regulation”. For the same molecule, the “Attachment of FAP-expressing cells to ECM proteins (matrigel, type I collagen)” value [5] was “significant inhibition”, the “Cross-reaction with CD26” value [6] was “no binding” and the “Induction of apoptosis in the cold” value ([7]; 4° C.) was “could not be induced”. For the same molecule, the Induction of apoptosis ([7]; HEK293 stably transfected with mouse FAP, RT, 60 min, Annexin V) was “underwent apoptosis; also recorded: Induction of apoptosis”.

B2: ESC11 IgG1: ESC11 variable domains in full human IgG1 format; heavy chain H to Q at position 1 (SEQ ID NO: 2) (antibody, V domains shown)
VH: QVQLQESGPGLVKPSETLSLTCTVSGGSISSNNYYWGWIRQTPGKGLEWIGSIYYSGSTNYNPSLKSRVTISVDTSKNQFSLKLSSVTAADTAVYYCARGARWQARPATRIDGVAFDIWGQGTMVTVSS
VL: ETTLTQSPGTLSLSPGERATLSCRASQTVTRNYLAWYQQKPGQAPRLLMYGASNRAAGVPDRFSGSGSGTDFTLTISRLEPEDFAVYYCQQFGSPYTFGQGTKVEIK
In the case of B2, the “Internalisation of FAP-antibody complexes” value [8] is reported as “most of the antibody had internalized”, the “Down-regulation of FAP expression” value [4] is reported as “down-regulation of FAP expression; also recorded: dose-dependent reduction of FAP” and the “Competition for FAP binding” value [9] is reported as “cross-inhibition”.

B3: ESC14 IgG1: ESC14 variable domains cloned into a full human IgG1 format (antibody, V domains shown)
VH: EVQLVQSGAEVKKPGASVKVSCKASGYTFTSYGISWVRQAPGQGLEWMGWISAYNGNTNYAQKLQGRVTMTTDTSTSTAYMELRSLRSDDTAVYYCARDWSRSGYYLPDYWGQGTLVTVSS
VL: DVVMTQSPLSLPVTLGQPASISCRSSQSLLHSNGYNYLDWYLQRPGQSPHLLIFLGSNRASGVPDRFSGSGSGTDFTLKISRVEAEDVGIYYCMQALQTPPTFGQGTKVEIK
For B3, the “Down-regulation of FAP expression” value [4] was “down-regulation of FAP expression; also recorded: dose-dependent reduction of FAP” and the “Competition for FAP binding” value [9] was “cross-inhibition”.

B4: ESC11 Fab fragment: fully human anti-FAP Fab from phage library; VH SEQ ID NO: 1, VL SEQ ID NO: 3 (antibody, listed as Homo sapiens, V domains shown)
VH: HVQLQESGPGLVKPSETLSLTCTVSGGSISSNNYYWGWIRQTPGKGLEWIGSIYYSGSTNYNPSLKSRVTISVDTSKNQFSLKLSSVTAADTAVYYCARGARWQARPATRIDGVAFDIWGQGTMVTVSS
VL: ETTLTQSPGTLSLSPGERATLSCRASQTVTRNYLAWYQQKPGQAPRLLMYGASNRAAGVPDRFSGSGSGTDFTLTISRLEPEDFAVYYCQQFGSPYTFGQGTKVEIK
In the case of B4, the “Down-regulation of FAP expression” value [4] is reported as “could not been observed”.

B5: ESC14 Fab fragment: fully human anti-FAP Fab from phage library; VH SEQ ID NO: 7, VL SEQ ID NO: 8 (antibody, listed as Homo sapiens, V domains shown)
VH: EVQLVQSGAEVKKPGASVKVSCKASGYTFTSYGISWVRQAPGQGLEWMGWISAYNGNTNYAQKLQGRVTMTTDTSTSTAYMELRSLRSDDTAVYYCARDWSRSGYYLPDYWGQGTLVTVSS
VL: DVVMTQSPLSLPVTLGQPASISCRSSQSLLHSNGYNYLDWYLQRPGQSPHLLIFLGSNRASGVPDRFSGSGSGTDFTLKISRVEAEDVGIYYCMQALQTPPTFGQGTKVEIK
In the case of B5, the “Down-regulation of FAP expression” value [4] is reported as “could not been observed”.
